Measured values: the supplement of paper PMC9732359
± gives the uncertainty stated by the source.

Test: protein stability index of a GFP-peptide fusion (yeast GPS) (PSI 1-4); higher = more stable; sorted into four equal gates, so the index is relative within each strain
Method in brief: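 Sequencing reads from sorted gates were used to score each peptide. The library consisted of tiled 17-residue yeast protein peptides fused downstream of GFP on a Cherry-expressing plasmid, pooled and carried in yeast. Mid-log cultures in leucine-free medium were split into four equal gates by GFP/Cherry ratio, and each gate's plasmids were PCR-amplified and Illumina-sequenced. The protein stability index adds up, over all gates, the read frequency multiplied by the gate number.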

Sequence | protein stability index (doa10∆) | protein stability index (pdr5∆) | protein stability index (san1∆) | protein stability index (ubr1∆)
ALSKFLTHPKYLNSRII [YML103C/NUP188] | 1.16 ± 0.057 | 1.32 ± 0.077 | 1.38 ± 0.093 | 1.58 ± 0.066
NIWLNNKIINWEISNPD [NUT1] | 2.48 ± 0.076 | 2.56 ± 0.057 | 2.71 ± 0.11 | 2.56 ± 0.077
LAFNYITYDKQEPSASQ [SRP68] | 3.19 ± 0.048 | 3.15 ± 0.056 | 2.97 ± 0.056 | 2.93 ± 0.037
LKAAFVAIGNTYGFLTP [RPS2] | 2.13 ± 0.072 | 2.27 ± 0.048 | 2.07 ± 0.095 | 2.55 ± 0.042
EDEGTLNVAEIITSGRD [ARP9] | 3.27 ± 0.22 | 3.21 ± 0.15 | 3.24 ± 0.079 | 3.29 ± 0.15
FWFDKLVTKILPLKKNE [YCG1] | 2.83 ± 0.21 | 3 ± 0.14 | 3.1 ± 0.15 | 2.43 ± 0.24
TGPKQQEITTNLENHFK [SCL1] | 2.94 ± 0.044 | 2.97 ± 0.037 | 3.04 ± 0.032 | 2.9 ± 0.03
FAFLNAMFFGNYGSSLQ [AAR2] | 2.9 ± 0.064 | 2.5 ± 0.075 | 2.91 ± 0.072 | 2.56 ± 0.069
HLNHYILLRYHHNDISN [YCG1] | 1.23 ± 0.088 | 1.17 ± 0.068 | 1.19 ± 0.15 | 1.33 ± 0.063
QLDKKNELQKFQALWQL [SMC1] |  |  | 2.58 ± 0.1 | 
EDLVDRIENPEKYAAAA [RPP0] | 3.05 ± 0.078 | 3.28 ± 0.099 | 2.93 ± 0.054 | 3.09 ± 0.057
TAGVGSTPNFGGNSNKS [SIN4] | 3.73 ± 0.2 | 3.31 ± 0.21 | 3.39 ± 0.078 | 3.36 ± 0.061
SLNPALQEKISTELNNK [SWI1] | 2.8 ± 0.11 | 3.05 ± 0.097 | 3.29 ± 0.069 | 3.27 ± 0.083
MSPNHGTFGGDGMYSES [FAS2] | 1.87 ± 0.075 | 2.34 ± 0.064 | 2.8 ± 0.14 | 2.43 ± 0.064
TISECNLYDDVKCWSKF [MED1] | 2.27 ± 0.093 | 2.34 ± 0.2 | 3.38 ± 0.071 | 3.14 ± 0.12
MKTNVHTQANEPNSAKK [RGR1] | 3.02 ± 0.11 | 3.14 ± 0.089 | 3.06 ± 0.086 | 3.24 ± 0.11
LSRYVKWPEYVRLQRQK [RPL8B] |  | 2.71 ± 0.24 |  | 
ILRRQAILRQQQQMANN [GAL11] | 2.49 ± 0.15 | 3.02 ± 0.16 | 2.62 ± 0.18 | 2.65 ± 0.13
FKVARELKTEAAVLSNL [ITC1] | 2.83 ± 0.19 | 2.66 ± 0.11 | 2.9 ± 0.089 | 2.86 ± 0.061
LNLLNYQELFIQPKNSD [YML103C/NUP188] | 2.57 ± 0.06 | 2.21 ± 0.056 | 2.35 ± 0.054 | 2.3 ± 0.045
CDLDFPLRENTNVLDVK [YDL116W/NUP84] | 2.72 ± 0.065 | 2.36 ± 0.055 | 2.36 ± 0.077 | 2.56 ± 0.037
DKLWTLIPEDKRDQYLK [RPL28] | 3.32 ± 0.19 | 2.88 ± 0.22 | 3.13 ± 0.07 | 3.18 ± 0.24
SELLGGTFKSTLDREYI [QCR2] | 3.15 ± 0.093 | 3.17 ± 0.11 | 2.87 ± 0.089 | 3.1 ± 0.05
LFQENDDDDDDDDEVDY [DSN1] | 2.94 ± 0.14 | 2.71 ± 0.1 | 2.97 ± 0.091 | 3.06 ± 0.15
PNLATFISSGTSLLDSL [YJL039C/NUP192] | 2.23 ± 0.047 | 2.6 ± 0.046 | 2.23 ± 0.057 | 2.1 ± 0.037
PPNNARRTYNTLEDKFL [ISW2] | 2.09 ± 0.04 | 2.02 ± 0.045 | 1.6 ± 0.11 | 1.95 ± 0.035
QIVKYARKGLTPSQIGV [RPS13] | 3.12 ± 0.068 | 2.97 ± 0.086 | 2.47 ± 0.082 | 2.83 ± 0.086

Sequence | protein stability index (doa10∆) | protein stability index (pdr5∆) | protein stability index (san1∆) | protein stability index (ubr1∆)
SATLPNYEDVGRFLRVP [BRR2] | 2.8 ± 0.087 | 3.1 ± 0.062 | 3.04 ± 0.048 | 3.01 ± 0.075
IDALGTEFSKNDLEVGV [SCL1] | 2.67 ± 0.097 | 2.46 ± 0.11 | 2.49 ± 0.11 | 2.65 ± 0.08
VFDTAITSWYENHNKGK [QCR9] | 2.49 ± 0.16 | 2.96 ± 0.12 | 2.65 ± 0.1 | 2.15 ± 0.073
VLLTFLQDELHKVSSQS [YCS4] | 3.54 ± 0.17 | 3.45 ± 0.2 | 2.95 ± 0.23 | 3.27 ± 0.13
ELAVENPLAKTMADAVR [SEC65] | 3 ± 0.048 | 2.94 ± 0.039 | 2.5 ± 0.047 | 1.77 ± 0.026
NDKQGFPMKQGVLLPTR [RPS6A] | 2.75 ± 0.098 | 3.06 ± 0.14 | 2.79 ± 0.075 | 2.57 ± 0.12
SLKGVDPKFRRNHKHAL [RPL29] | 1.45 ± 0.068 | 1.77 ± 0.077 | 1.78 ± 0.082 | 1.78 ± 0.12
GKYVIAGHVSGVITVHN [RPN14] | 1.55 ± 0.098 | 2.48 ± 0.092 | 2.48 ± 0.1 | 3.23 ± 0.038
YIWRYLPAPPVCIRPSV [RPO31] | 1.48 ± 0.14 | 1.27 ± 0.1 |  | 1.2 ± 0.23
FRETTHSKRELDSGDDQ [BRR2] | 3.31 ± 0.12 | 3.02 ± 0.12 | 2.51 ± 0.088 | 2.78 ± 0.16
LQNNINNSNNNNIIRIQ [SNF11] | 2.94 ± 0.089 | 2.57 ± 0.13 | 2.87 ± 0.069 | 3.32 ± 0.089
ENLVQGNGNVSESDIIN [YCG1] | 3.78 ± 0.29 |  |  | 
NLTEFVQMDKIRKIVRK [AAR2] | 2.77 ± 0.14 | 2.43 ± 0.1 | 1.9 ± 0.13 | 2.34 ± 0.13
ELVKSYSWLLFEASCME [YJR042W/NUP85] | 2.96 ± 0.28 |  | 3.44 ± 0.16 | 2.41 ± 0.19
VNDFSDITSDQLLQRLN [SMC3] | 2.56 ± 0.055 | 2.24 ± 0.053 | 2.41 ± 0.083 | 2.6 ± 0.04
TRGRNIIMHKDVEIGRM [RET1] |  | 3.1 ± 0.16 | 2.98 ± 0.076 | 2.74 ± 0.15
IRRAYLHYIPKYNRYEK [RPS11A] | 2.04 ± 0.07 | 1.72 ± 0.064 | 1.81 ± 0.1 | 1.85 ± 0.044
IGSGAMSPLECRNILGV [RPP1] | 1.93 ± 0.03 | 2.43 ± 0.046 | 2.19 ± 0.064 | 2.38 ± 0.034
QQQTSTFNSKPVRTIVP [SIR4] | 2.38 ± 0.032 | 2.77 ± 0.036 | 2.6 ± 0.039 | 2.58 ± 0.028
TFSSSISTYISTDELVG [POP8] | 3.02 ± 0.087 | 2.93 ± 0.057 | 2.9 ± 0.072 | 3.02 ± 0.069
HRQEIFKDSPMDLFMST [GAL11] | 2.85 ± 0.089 | 2.98 ± 0.059 | 3.23 ± 0.073 | 2.87 ± 0.076
AIKWDGSSGGVIRMVVL [PRE3] | 2.56 ± 0.084 | 1.92 ± 0.071 | 2.71 ± 0.1 | 1.75 ± 0.049
ILMGFTLKDNIVVMDCF [RRI1] |  | 1.97 ± 0.084 | 2.74 ± 0.12 | 1.39 ± 0.14
KTAEQVAAERAARKAAN [RPL7A] | 2.94 ± 0.091 | 2.92 ± 0.06 | 2.78 ± 0.062 | 2.56 ± 0.052
NKNQDAFEAELSNIPLL [ARP9] | 3.12 ± 0.098 | 3.23 ± 0.086 | 3.01 ± 0.084 | 3.31 ± 0.076
SGFYTFSLLDHHYRPDM [PRE1] |  | 3.1 ± 0.28 | 2.99 ± 0.13 | 
IQLQEFLLSAMTMASKS [NSL1] | 1.5 ± 0.058 | 1.83 ± 0.1 | 1.81 ± 0.09 | 1.93 ± 0.059
